Experimental findings from patent US20220056101A1 (published 2022) are described below.

Assay [1] has as its target T1, Epstein-Barr virus latent membrane protein 2 (LMP2) peptide on HLA-A11 (human).
T1 peptide: SSCSSCPLSK
Kind of assay: killing.

The target of assay [2] is T2, Epstein-Barr virus latent membrane protein 2 (LMP2) peptide on HLA-A24 (human).
T2 peptide: SSCSSCPLSK
In words: killing.

Numbering of substitutions follows the chain as printed.

B1: TCR-NPC-A11-003 (TCR, V domains shown)
Valpha: GIQVEQSPPDLILQEGANSTLRCNFSDSVNNLQWFHQNPWGQLINLFYIPSGTKQNGRLSATTVATERYSLLYISSSQTTDSGVYFCAVVNNNDMRFGAGTRLTVKP
Vbeta: DTEVTQTPKHLVMGMTNKKSLKCEQHMGHRAMYWYKQKAKKPPELMFVYSYEKLSINESVPSRFSPECPNSSLLNLHLHALQPEDSALYLCASSPGRWYEQFFGPGTRLTVL
For B1, the binding result is “recognises” in assay [1] and “no recognition” in assay [2].

B2: TCR-NPC-A11-125 (TCR, V domains shown)
Valpha: B1 Valpha with V90L
Vbeta: B1 Vbeta with P95Q, Q101A, P105Q, L112V
Consider B2, for which the binding result in assay [1] is recorded as “recognises”; in assay [2] it was “no recognition”.
